Reference: patent US20140087995A1 (published 2014)
Numbered stars: 1 amine (or outer) side, 2 acyl side, 3 side chain; on linkers, the order of the positions; unused ones are H or OH. Bridge positions count the residues as written; N and C are the ends. Side chains are listed from the residue outwards. Ends that are not written are not given here. * marks the point of attachment. C20 diacid = O=C(O)CCCCCCCCCCCCCCCCCCC(=O)*; γGlu = O=C(O)[C@H](CCC(=O)[*:2])N[*:1]; AEEA = NCCOCCOCC(=O)O

B1: N^ε1-[2-[2-[2-(19-carboxynonadecanoylamino)ethoxy]ethoxy]acetyl]-[Arg17,Pro21,Pro27,His34]-h-amylin (peptide)
peptide: K([AEEA-C20 diacid])CNTATCATQRLANFLRHSSPNFGAIPSSTNVGHNTY-NH2
modifications: disulfide 2-7; N-terminus assumed
SMILES: CC[C@H](C)[C@H](NC(=O)[C@H](C)NC(=O)CNC(=O)[C@H](Cc1ccccc1)NC(=O)[C@H](CC(N)=O)NC(=O)[C@@H]1CCCN1C(=O)[C@H](CO)NC(=O)[C@H](CO)NC(=O)[C@H](Cc1c[nH]cn1)NC(=O)[C@H](CCCNC(=N)N)NC(=O)[C@H](CC(C)C)NC(=O)[C@H](Cc1ccccc1)NC(=O)[C@H](CC(N)=O)NC(=O)[C@H](C)NC(=O)[C@H](CC(C)C)NC(=O)[C@H](CCCNC(=N)N)NC(=O)[C@H](CCC(N)=O)NC(=O)[C@@H](NC(=O)[C@H](C)NC(=O)[C@@H]1CSSC[C@H](NC(=O)[C@@H](N)CCCCNC(=O)COCCOCCNC(=O)CCCCCCCCCCCCCCCCCCC(=O)O)C(=O)N[C@@H](CC(N)=O)C(=O)N[C@@H]([C@@H](C)O)C(=O)N[C@@H](C)C(=O)N[C@@H]([C@@H](C)O)C(=O)N1)[C@@H](C)O)C(=O)N1CCC[C@H]1C(=O)N[C@@H](CO)C(=O)N[C@@H](CO)C(=O)N[C@H](C(=O)N[C@@H](CC(N)=O)C(=O)N[C@H](C(=O)NCC(=O)N[C@@H](Cc1c[nH]cn1)C(=O)N[C@@H](CC(N)=O)C(=O)N[C@H](C(=O)N[C@@H](Cc1ccc(O)cc1)C(N)=O)[C@@H](C)O)C(C)C)[C@@H](C)O
notes: also called compound 91
B2: N^ε1-[(4S)-4-carboxy-4-(19-carboxynonadecanoylamino)butanoyl]-[Arg17,Pro21,Pro27,His34]-h-amylin (peptide)
peptide: K([γGlu-C20 diacid])CNTATCATQRLANFLRHSSPNFGAIPSSTNVGHNTY-NH2
modifications: disulfide 2-7; N-terminus assumed
SMILES: CC[C@H](C)[C@H](NC(=O)[C@H](C)NC(=O)CNC(=O)[C@H](Cc1ccccc1)NC(=O)[C@H](CC(N)=O)NC(=O)[C@@H]1CCCN1C(=O)[C@H](CO)NC(=O)[C@H](CO)NC(=O)[C@H](Cc1c[nH]cn1)NC(=O)[C@H](CCCNC(=N)N)NC(=O)[C@H](CC(C)C)NC(=O)[C@H](Cc1ccccc1)NC(=O)[C@H](CC(N)=O)NC(=O)[C@H](C)NC(=O)[C@H](CC(C)C)NC(=O)[C@H](CCCNC(=N)N)NC(=O)[C@H](CCC(N)=O)NC(=O)[C@@H](NC(=O)[C@H](C)NC(=O)[C@@H]1CSSC[C@H](NC(=O)[C@@H](N)CCCCNC(=O)CC[C@H](NC(=O)CCCCCCCCCCCCCCCCCCC(=O)O)C(=O)O)C(=O)N[C@@H](CC(N)=O)C(=O)N[C@@H]([C@@H](C)O)C(=O)N[C@@H](C)C(=O)N[C@@H]([C@@H](C)O)C(=O)N1)[C@@H](C)O)C(=O)N1CCC[C@H]1C(=O)N[C@@H](CO)C(=O)N[C@@H](CO)C(=O)N[C@H](C(=O)N[C@@H](CC(N)=O)C(=O)N[C@H](C(=O)NCC(=O)N[C@@H](Cc1c[nH]cn1)C(=O)N[C@@H](CC(N)=O)C(=O)N[C@H](C(=O)N[C@@H](Cc1ccc(O)cc1)C(N)=O)[C@@H](C)O)C(C)C)[C@@H](C)O
notes: also called compound 77
B3: N^ε1-[(4S)-4-carboxy-4-[[(4S)-4-carboxy-4-(19-carboxynonadecanoylamino)butanoyl]amino]butanoyl]-[Arg17,Pro21,Pro27,His34]-h-amylin (peptide)
peptide: K([γGlu-γGlu-C20 diacid])CNTATCATQRLANFLRHSSPNFGAIPSSTNVGHNTY-NH2
modifications: disulfide 2-7; N-terminus assumed
SMILES: CC[C@H](C)[C@H](NC(=O)[C@H](C)NC(=O)CNC(=O)[C@H](Cc1ccccc1)NC(=O)[C@H](CC(N)=O)NC(=O)[C@@H]1CCCN1C(=O)[C@H](CO)NC(=O)[C@H](CO)NC(=O)[C@H](Cc1c[nH]cn1)NC(=O)[C@H](CCCNC(=N)N)NC(=O)[C@H](CC(C)C)NC(=O)[C@H](Cc1ccccc1)NC(=O)[C@H](CC(N)=O)NC(=O)[C@H](C)NC(=O)[C@H](CC(C)C)NC(=O)[C@H](CCCNC(=N)N)NC(=O)[C@H](CCC(N)=O)NC(=O)[C@@H](NC(=O)[C@H](C)NC(=O)[C@@H]1CSSC[C@H](NC(=O)[C@@H](N)CCCCNC(=O)CC[C@H](NC(=O)CC[C@H](NC(=O)CCCCCCCCCCCCCCCCCCC(=O)O)C(=O)O)C(=O)O)C(=O)N[C@@H](CC(N)=O)C(=O)N[C@@H]([C@@H](C)O)C(=O)N[C@@H](C)C(=O)N[C@@H]([C@@H](C)O)C(=O)N1)[C@@H](C)O)C(=O)N1CCC[C@H]1C(=O)N[C@@H](CO)C(=O)N[C@@H](CO)C(=O)N[C@H](C(=O)N[C@@H](CC(N)=O)C(=O)N[C@H](C(=O)NCC(=O)N[C@@H](Cc1c[nH]cn1)C(=O)N[C@@H](CC(N)=O)C(=O)N[C@H](C(=O)N[C@@H](Cc1ccc(O)cc1)C(N)=O)[C@@H](C)O)C(C)C)[C@@H](C)O
notes: also called compound 86
B4: N^ε1-[2-[2-[2-[[2-[2-[2-[[(4S)-4-carboxy-4-(19-carboxynonadecanoylamino)butanoyl]amino]ethoxy]ethoxy]acetyl]amino]ethoxy]ethoxy]acetyl]-[Arg17,Pro21,Pro27,His34 … (peptide)
peptide: K([AEEA-AEEA-γGlu-C20 diacid])CNTATCATQRLANFLRHSSPNFGAIPSSTNVGHNTY-NH2
modifications: disulfide 2-7; N-terminus assumed
SMILES: CC[C@H](C)[C@H](NC(=O)[C@H](C)NC(=O)CNC(=O)[C@H](Cc1ccccc1)NC(=O)[C@H](CC(N)=O)NC(=O)[C@@H]1CCCN1C(=O)[C@H](CO)NC(=O)[C@H](CO)NC(=O)[C@H](Cc1c[nH]cn1)NC(=O)[C@H](CCCNC(=N)N)NC(=O)[C@H](CC(C)C)NC(=O)[C@H](Cc1ccccc1)NC(=O)[C@H](CC(N)=O)NC(=O)[C@H](C)NC(=O)[C@H](CC(C)C)NC(=O)[C@H](CCCNC(=N)N)NC(=O)[C@H](CCC(N)=O)NC(=O)[C@@H](NC(=O)[C@H](C)NC(=O)[C@@H]1CSSC[C@H](NC(=O)[C@@H](N)CCCCNC(=O)COCCOCCNC(=O)COCCOCCNC(=O)CC[C@H](NC(=O)CCCCCCCCCCCCCCCCCCC(=O)O)C(=O)O)C(=O)N[C@@H](CC(N)=O)C(=O)N[C@@H]([C@@H](C)O)C(=O)N[C@@H](C)C(=O)N[C@@H]([C@@H](C)O)C(=O)N1)[C@@H](C)O)C(=O)N1CCC[C@H]1C(=O)N[C@@H](CO)C(=O)N[C@@H](CO)C(=O)N[C@H](C(=O)N[C@@H](CC(N)=O)C(=O)N[C@H](C(=O)NCC(=O)N[C@@H](Cc1c[nH]cn1)C(=O)N[C@@H](CC(N)=O)C(=O)N[C@H](C(=O)N[C@@H](Cc1ccc(O)cc1)C(N)=O)[C@@H](C)O)C(C)C)[C@@H](C)O
notes: also called compound 97
B5: N^ε1-[(4S)-4-carboxy-4-[[(4S)-4-carboxy-4-(19-carboxynonadecanoylamino)butanoyl]amino]butanoyl]-[His14,Arg17,Pro21,Pro27]-h-amylin (peptide)
peptide: K([γGlu-γGlu-C20 diacid])CNTATCATQRLAHFLRHSSPNFGAIPSSTNVGSNTY-NH2
modifications: disulfide 2-7; N-terminus assumed
SMILES: CC[C@H](C)[C@H](NC(=O)[C@H](C)NC(=O)CNC(=O)[C@H](Cc1ccccc1)NC(=O)[C@H](CC(N)=O)NC(=O)[C@@H]1CCCN1C(=O)[C@H](CO)NC(=O)[C@H](CO)NC(=O)[C@H](Cc1c[nH]cn1)NC(=O)[C@H](CCCNC(=N)N)NC(=O)[C@H](CC(C)C)NC(=O)[C@H](Cc1ccccc1)NC(=O)[C@H](Cc1c[nH]cn1)NC(=O)[C@H](C)NC(=O)[C@H](CC(C)C)NC(=O)[C@H](CCCNC(=N)N)NC(=O)[C@H](CCC(N)=O)NC(=O)[C@@H](NC(=O)[C@H](C)NC(=O)[C@@H]1CSSC[C@H](NC(=O)[C@@H](N)CCCCNC(=O)CC[C@H](NC(=O)CC[C@H](NC(=O)CCCCCCCCCCCCCCCCCCC(=O)O)C(=O)O)C(=O)O)C(=O)N[C@@H](CC(N)=O)C(=O)N[C@@H]([C@@H](C)O)C(=O)N[C@@H](C)C(=O)N[C@@H]([C@@H](C)O)C(=O)N1)[C@@H](C)O)C(=O)N1CCC[C@H]1C(=O)N[C@@H](CO)C(=O)N[C@@H](CO)C(=O)N[C@H](C(=O)N[C@@H](CC(N)=O)C(=O)N[C@H](C(=O)NCC(=O)N[C@@H](CO)C(=O)N[C@@H](CC(N)=O)C(=O)N[C@H](C(=O)N[C@@H](Cc1ccc(O)cc1)C(N)=O)[C@@H](C)O)C(C)C)[C@@H](C)O
notes: also called compound 92
B6: N^ε1-[(4S)-4-carboxy-4-[[(4S)-4-carboxy-4-(19-carboxynonadecanoylamino)butanoyl]amino]butanoyl]-[Ser14,Arg17,Pro21,Pro27,Pro34,Glu35]-h-amylin (peptide)
peptide: K([γGlu-γGlu-C20 diacid])CNTATCATQRLASFLRHSSPNFGAIPSSTNVGPETY-NH2
modifications: disulfide 2-7; N-terminus assumed
SMILES: CC[C@H](C)[C@H](NC(=O)[C@H](C)NC(=O)CNC(=O)[C@H](Cc1ccccc1)NC(=O)[C@H](CC(N)=O)NC(=O)[C@@H]1CCCN1C(=O)[C@H](CO)NC(=O)[C@H](CO)NC(=O)[C@H](Cc1c[nH]cn1)NC(=O)[C@H](CCCNC(=N)N)NC(=O)[C@H](CC(C)C)NC(=O)[C@H](Cc1ccccc1)NC(=O)[C@H](CO)NC(=O)[C@H](C)NC(=O)[C@H](CC(C)C)NC(=O)[C@H](CCCNC(=N)N)NC(=O)[C@H](CCC(N)=O)NC(=O)[C@@H](NC(=O)[C@H](C)NC(=O)[C@@H]1CSSC[C@H](NC(=O)[C@@H](N)CCCCNC(=O)CC[C@H](NC(=O)CC[C@H](NC(=O)CCCCCCCCCCCCCCCCCCC(=O)O)C(=O)O)C(=O)O)C(=O)N[C@@H](CC(N)=O)C(=O)N[C@@H]([C@@H](C)O)C(=O)N[C@@H](C)C(=O)N[C@@H]([C@@H](C)O)C(=O)N1)[C@@H](C)O)C(=O)N1CCC[C@H]1C(=O)N[C@@H](CO)C(=O)N[C@@H](CO)C(=O)N[C@H](C(=O)N[C@@H](CC(N)=O)C(=O)N[C@H](C(=O)NCC(=O)N1CCC[C@H]1C(=O)N[C@@H](CCC(=O)O)C(=O)N[C@H](C(=O)N[C@@H](Cc1ccc(O)cc1)C(N)=O)[C@@H](C)O)C(C)C)[C@@H](C)O
notes: also called compound 120

Legend:
[1] = molecular target: T1, human calcitonin receptor (human, UniProt P30988 25-474); assay: ratio of IC50 at human calcitonin receptor to IC50 at human amylin receptor (SPA competition assays)
T1 construct: whole, on cells; also called hCTR; hCT
T1 sequence (looked up): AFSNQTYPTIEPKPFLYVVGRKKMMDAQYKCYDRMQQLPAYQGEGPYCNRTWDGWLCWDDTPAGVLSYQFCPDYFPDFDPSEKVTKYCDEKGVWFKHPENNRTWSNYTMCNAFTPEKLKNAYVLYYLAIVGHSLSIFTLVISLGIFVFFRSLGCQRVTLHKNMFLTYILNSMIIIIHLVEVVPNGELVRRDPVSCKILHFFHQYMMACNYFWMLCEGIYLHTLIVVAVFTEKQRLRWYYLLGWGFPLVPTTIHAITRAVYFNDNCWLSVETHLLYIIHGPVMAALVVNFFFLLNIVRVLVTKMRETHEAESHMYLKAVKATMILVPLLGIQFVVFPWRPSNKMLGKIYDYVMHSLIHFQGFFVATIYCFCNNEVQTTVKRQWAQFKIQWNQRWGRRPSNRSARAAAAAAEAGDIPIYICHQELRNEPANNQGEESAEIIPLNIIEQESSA
Procedure, shortened: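 Membranes (35 ng/μL final) + SPA beads, 50 mM Hepes pH 7.4 buffer with 1 mM CaCl2, 5 mM MgCl₂, 0.1% OA, 0.02% Tween20; 120 min, 25° C, shaking; centrifuged, counted; IC₅₀ by one-site binding competition.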

[2] = molecular target: T1, human calcitonin receptor; assay: SPA radioligand competition (125I-calcitonin), membranes of BHK cells with human calcitonin receptor
Procedure, shortened: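 BHK hCTR membranes 35 ng/μL + SPA beads 0.05 mg/well; buffer 50 mM Hepes pH 7.4, 1 mM CaCl2, 5 mM MgCl₂, 0.1% OA, 0.02% Tween20. 120 min, 25° C., shaking. Scintillation count; IC50 by one-site binding competition.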

Binder | Ratio hCT/hAmylin binding [1] | IC50 [2] [nM]
B1 | 101 | 12
B2 | 118 | 50.7
B3 | 159 | 133
B4 | 104 | 58.9
K([γGlu-γGlu-C20 diacid])CNTATCATQRLAEFLRHSSPNFGAILSSTPVGPETY-NH2 (disulfide 2-7) | 22.6 | 1.56
B5 | 145 | 26
B6 | 45.3 | 3.44
